# Residue numbers refer to the chain shown, from its start.
# B1: IgG1-F1130 (antibody)
# heavy: QVQLQESGPGLVKPSETLSLTCAVSGHSISHDHAWSWVRQPPGEGLEWIGFISYSGITNYNPSLQGRVTISRDNSKNTLYLQMNSLRAEDTAVYYCARSLARTTAMDYWGEGTLVTVSSASTKGPSVFPLAPSSKSTSGGTAALGCLVKDYFPEPVTVSWNSGALTSGVHTFPAVLQSSGLYSLSSVVTVPSSSLGTQTYICNVNHKPSNTKVDKKVEPKSCDKTHTCPPCPAPELLGGPSVFLFPPKPKDTLYISRTPEVTCVVVDVSHEDPEVKFNWYVDGVEVHNAKTKPREEQYNSTYRVVSVLAVLHADWLNGKEYKCKVSNKALPAPIEKTISKAKGQPREPQVYTLPPSRDELTKNQVSLTCLVKGFYPSDIAVEWESNGQPENNYKTTPPVLDSDGSFFLYSKLTVDKSRWQQGNVFSCSVMHEALHYHVTQKSLSLSP
# light: not shown
# notes: EU numbering; copies: 2 + 2
# B2: IgG1-F1196 (antibody)
# heavy: B1 heavy with A309T, A313Q, Q440R, S442E, L443E
# light: not shown
# notes: EU numbering; copies: 2 + 2
# B3: IgG1-F1185 (antibody)
# heavy: B1 heavy with Y254M, A313Q, E382A, M430L, Y436S, V438Y
# light: not shown
# notes: EU numbering; copies: 2 + 2
# B4: IgG1-F1162 (antibody)
# heavy: B1 heavy with P240D, T252Y, A309T, A313Q
# light: not shown
# notes: EU numbering; copies: 2 + 2
# B5: IgG1-F1153 (antibody)
# heavy: B1 heavy with L237R, S241K, T252V, A309Q, S426N
# light: not shown
# notes: EU numbering; copies: 2 + 2
# B6: IgG1-F1160 (antibody)
# heavy: B1 heavy with Y254M, A309T, V310F, A313Q, S426N, V438Y
# light: not shown
# notes: EU numbering; copies: 2 + 2
# B7: IgG1-F1197 (antibody)
# heavy: B1 heavy with S256T, A309T, A313Q, Q440R, S442E
# light: not shown
# notes: EU numbering; copies: 2 + 2
# B8: IgG1-F1191 (antibody)
# heavy: B1 heavy with A309T, A313Q, T439A, Q440R, S442E
# light: not shown
# notes: EU numbering; copies: 2 + 2
# B9: IgG1-F1183 (antibody)
# heavy: B1 heavy with Y254M, A309T, A313Q, E382A, M430L, Y436S, V438Y
# light: not shown
# notes: EU numbering; copies: 2 + 2
# B10: IgG1-F1146 (antibody)
# heavy: B1 heavy with L237R, S241K, T252V, A309Q, Q440R, S442E
# light: not shown
# notes: EU numbering; copies: 2 + 2
# B11: IgG1-F1184 (antibody)
# heavy: B1 heavy with Y254M, A313Q, M430L, Y436S, V438Y
# light: not shown
# notes: EU numbering; copies: 2 + 2
# B12: IgG1-F1138 (antibody)
# heavy: B1 heavy with L237R, S241K, A309T, A313Q, Q440R, S442E
# light: not shown
# notes: EU numbering; copies: 2 + 2
# B13: IgG1-F1190 (antibody)
# heavy: B1 heavy with A309T, A313Q, H435E, Q440R, S442E
# light: not shown
# notes: EU numbering; copies: 2 + 2
# B14: IgG1-F1145 (antibody)
# heavy: B1 heavy with T252V, A309Q, Q440R, S442E
# light: not shown
# notes: EU numbering; copies: 2 + 2
# B15: IgG1-F1195 (antibody)
# heavy: B1 heavy with A309T, A313Q, Q440R, S442E, L443A
# light: not shown
# notes: EU numbering; copies: 2 + 2
# B16: IgG1-F1142 (antibody)
# heavy: B1 heavy with L237R, S241K, A309T, A313Q, V424E, S426R, Q440R, S442E
# light: not shown
# notes: EU numbering; copies: 2 + 2
# B17: IgG1-F1136 (antibody)
# heavy: B1 heavy with L237R, S241K, A309T, A313Q, V424E, S426R
# light: not shown
# notes: EU numbering; copies: 2 + 2
# B18: IgG1-F1141 (antibody)
# heavy: B1 heavy with A309T, A313Q, V424S, S426R, Q440R, S442E
# light: not shown
# notes: EU numbering; copies: 2 + 2
# B19: IgG1-F1164 (antibody)
# heavy: B1 heavy with P240D, T252Y, A309Q
# light: not shown
# notes: EU numbering; copies: 2 + 2
# B20: IgG1-F1135 (antibody)
# heavy: B1 heavy with L237R, S241K, A309T, A313Q, S442E
# light: not shown
# notes: EU numbering; copies: 2 + 2
# B21: IgG1-F1144 (antibody)
# heavy: B1 heavy with L237R, S241K, T252V, A309Q, V310P, Q440R, S442E
# light: not shown
# notes: EU numbering; copies: 2 + 2
# B22: IgG1-F1147 (antibody)
# heavy: B1 heavy with A309Q, V438Y, Q440R, S442E
# light: not shown
# notes: EU numbering; copies: 2 + 2
# B23: IgG1-F1194 (antibody)
# heavy: B1 heavy with A309T, A313Q, Q440R, K441D, S442E
# light: not shown
# notes: EU numbering; copies: 2 + 2
# B24: IgG1-F1152 (antibody)
# heavy: B1 heavy with L237R, S241K, A309Q, S426N, V438Y
# light: not shown
# notes: EU numbering; copies: 2 + 2
# B25: IgG1-F1165 (antibody)
# heavy: B1 heavy with P240D, T252Y, A309Q, V310P
# light: not shown
# notes: EU numbering; copies: 2 + 2
# B26: IgG1-F1158 (antibody)
# heavy: B1 heavy with L237R, S241K, A309T, A313Q, V438Y, Q440R, S442E
# light: not shown
# notes: EU numbering; copies: 2 + 2
# B27: IgG1-F1151 (antibody)
# heavy: B1 heavy with L237R, S241K, A309T, A313Q, S426N, V438Y
# light: not shown
# notes: EU numbering; copies: 2 + 2
# B28: IgG1-F1161 (antibody)
# heavy: B1 heavy with Y254M, A309T, A313Q, I334V, S426N, V438Y
# light: not shown
# notes: EU numbering; copies: 2 + 2
# B29: IgG1-F1178 (antibody)
# heavy: B1 heavy with Y254M, V261I, A309T, V310F, A313Q, M430L, Y436N, V438Y
# light: not shown
# notes: EU numbering; copies: 2 + 2
# B30: IgG1-F1163 (antibody)
# heavy: B1 heavy with P240D, T252Y, A309Q, V438Y
# light: not shown
# notes: EU numbering; copies: 2 + 2
# B31: IgG1-F1157 (antibody)
# heavy: B1 heavy with A309T, A313Q, V438Y, Q440R, S442E
# light: not shown
# notes: EU numbering; copies: 2 + 2
# B32: IgG1-F1132 (antibody)
# heavy: B1 heavy with L237R, S241K, A309T, A313Q, V424S
# light: not shown
# notes: EU numbering; copies: 2 + 2
# B33: IgG1-F1139 (antibody)
# heavy: B1 heavy with L237R, S241K, A309T, A313Q, S426N
# light: not shown
# notes: EU numbering; copies: 2 + 2
# B34: IgG1-F1140 (antibody)
# heavy: B1 heavy with A309T, A313Q, V424E, S426R, Q440R, S442E
# light: not shown
# notes: EU numbering; copies: 2 + 2
# B35: IgG1-F1148 (antibody)
# heavy: B1 heavy with L237R, S241K, A309Q, V438Y, Q440R, S442E
# light: not shown
# notes: EU numbering; copies: 2 + 2
# B36: IgG1-F1188 (antibody)
# heavy: B1 heavy with Y254M, A313Q, E382A, Y436H, V438Y
# light: not shown
# notes: EU numbering; copies: 2 + 2
# B37: IgG1-F1131 (antibody)
# heavy: B1 heavy with L237R, S241K, A309T, A313Q, V424E
# light: not shown
# notes: EU numbering; copies: 2 + 2
# B38: IgG1-F1133 (antibody)
# heavy: B1 heavy with L237R, S241K, A309T, A313Q, S426R
# light: not shown
# notes: EU numbering; copies: 2 + 2
# B39: IgG1-F1134 (antibody)
# heavy: B1 heavy with L237R, S241K, A309T, A313Q, Q440R
# light: not shown
# notes: EU numbering; copies: 2 + 2
# B40: IgG1-F1154 (antibody)
# heavy: B1 heavy with L237R, S241K, T252V, A309Q, V310P, S426N
# light: not shown
# notes: EU numbering; copies: 2 + 2
# B41: IgG1-F1137 (antibody)
# heavy: B1 heavy with L237R, S241K, A309T, A313Q, V424S, S426R
# light: not shown
# notes: EU numbering; copies: 2 + 2
# B42: IgG1-F1143 (antibody)
# heavy: B1 heavy with L237R, S241K, A309T, A313Q, V424S, S426R, Q440R, S442E
# light: not shown
# notes: EU numbering; copies: 2 + 2
# Target: T1, soluble human FcRn complexed with β2-microglobulin (human, UniProt P61769 21-119, limits assumed)
# T1 construct: also called hFcRn
# Experiment: Biacore SPR, pH 7.0;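 also: test antibodies captured on a Protein L chip with human FcRn flowed over as analyte, KD obtained as the ratio of dissociation to association rate constants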
row,Kd [nM],Binder
1,55.4,B1
2,151,B2
3,917,B3
4,343,B4
5,48.5,B5
6,288,B6
7,94.6,B7
8,211,B8
9,1280,B9
10,62.4,B10
11,1000,B11
12,165,B12
13,240,B13
14,52.3,B14
15,176,B15
16,187,B16
17,163,B17
18,177,B18
19,69.6,B19
20,126,B20
21,14.4,B21

row,Kd [nM],Binder
1,71.9,B22
2,155,B23
3,73.8,B24
4,16.3,B25
5,244,B26
6,251,B27
7,1070,B28
8,872,B29
9,154,B30
10,209,B31
11,140,B32
12,152,B33
13,162,B34
14,76.3,B35
15,1720,B36
16,129,B37
17,158,B38
18,166,B39
19,13.4,B40
20,158,B41
21,198,B42

# From patent US20200199241A1 (Chugai, published 2020)
